Measured values published in patent publication US7691590B2, “Reducing myelin-mediated inhibition of axon regeneration” (Children's Medical Center Corporation, priority 2001, dated 2010).
Values joined by “and” are separate entries in the source; they are usually repeats but may differ in a detail not shown here. Identical values can stand only once. Like-named read-outs stand apart in the source and are kept apart here. Blank lines part the entries; values can stand above or below the molecule they belong to.

Tests used:
Nogo receptor (NgR) [1] = molecular target: T1, Nogo receptor (NgR) (Homo sapiens, UniProt Q9BZR6); assay: Cell surface binding of AP fusion proteins to NgR-expressing cells (saturation analysis); conditions: CHO cell line stably expressing NgR; read-out: binding affinity of expressed NgR for AP-OM
T1 construct: both cDNAs contained the full-length coding region of the Nogo-66 receptor (NgR); expressed in transfected cells; host or cells: CHO cells stably expressing NgR (COS-7 for the library clones)
T1 sequence (Q9BZR6 27-473): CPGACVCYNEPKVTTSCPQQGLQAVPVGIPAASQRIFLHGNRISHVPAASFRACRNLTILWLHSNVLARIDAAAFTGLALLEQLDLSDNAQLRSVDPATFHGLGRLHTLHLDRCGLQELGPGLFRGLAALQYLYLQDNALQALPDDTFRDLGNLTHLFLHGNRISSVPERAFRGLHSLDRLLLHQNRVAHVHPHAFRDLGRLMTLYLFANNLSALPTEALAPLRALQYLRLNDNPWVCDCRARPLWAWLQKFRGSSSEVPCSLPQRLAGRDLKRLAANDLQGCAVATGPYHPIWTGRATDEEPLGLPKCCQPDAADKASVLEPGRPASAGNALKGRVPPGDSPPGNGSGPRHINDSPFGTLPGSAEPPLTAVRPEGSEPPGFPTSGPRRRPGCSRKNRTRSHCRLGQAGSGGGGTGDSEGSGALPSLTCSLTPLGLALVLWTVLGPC
Description: To investigate the mechanisms by which OMgp inhibits neurite outgrowth, we used an expression cloning strategy^9,13,16 to identify cell surface OMgp-binding proteins. […] From pools of an adult human brain cDNA expression library, we isolated two cDNAs that encoded OMgp-binding proteins. […] We then established a CHO cell line stably expressing the NgR and determined the binding affinity of expressed NgR for AP-OM as 5 nM, similar to what had been determined for Nogo-66 (7 nM, ref. 9). […] We next performed co-precipitation experiments by incubating GST or a GST fusion protein containing the entire extracellular domain of NgR (GST-NgR) with OM-his alone or in the presence of AP or AP-66 protein. […] We next determined which domain(s) of OMgp was responsible for binding to NgR. Like NgR, OMgp is also a GPI-linked protein containing a leucine-rich repeat (LRR) domain. […]
Cell surface binding and expression cloning were performed as described previously^4,13,17. […] After extensive washing and heat inactivation, the bound proteins were detected by AP staining using nitro blue tetrazolium (NBT) and 5-bromo-4-chloro-3-indoyl phosphate (BCIP) as substrate. For saturation analysis, we disrupted cells and detected bound AP fusion proteins using r-nitrophenyl phosphate as substrate. […]

[2] = tested on: growth cones of E13 chick DRG neurons; assay: Growth cone collapse assay with E13 chick DRG explants; assay type: cell-based
From the text: OMgp is a Physiological Nogo Receptor Ligand and Inhibitor of Neurite Outgrowth. To examine whether any GPI-linked proteins in CNS myelin may act as inhibitors of neurite outgrowth, we treated purified bovine white matter myelin with phosphatidylinositol-specific phospholipase C (PI-PLC) and examined the released proteins for their ability to alter growth cone morphology in a growth cone collapse assay using embryonic day 13 chick dorsal root ganglia (E13 DRG)^6,9,10. […] Since the size of this band was similar to that of a previously identified CNS myelin protein OMgp^11,12, we used antibodies specific for OMgp to detect enrichment of cleaved OMgp in the PI-PLC supernatants by Western blot. […] Next, we examined whether purified recombinant OMgp protein was able to act as an inhibitor of neurite outgrowth in two well-established in vitro assays, the growth cone collapse^6,9,13 and the neurite outgrowth assays^3-7,9.
Growth Cone Collapse and Neurite Outgrowth Assays. Chick E13 DRG and E7 retina were isolated and cultured as described previously^9,10. DRG explants cultured overnight were used for growth cone collapse assays. To assess the effects of PI-PLC treatment, cultures were pre-incubated with 2 U/ml PI-PLC for 30 min prior to treatment with individual test proteins for an additional 30 min. To express NgR in E7 retinal ganglion neurons, we infected the explants with recombinant HSV for 24 hr. After incubation with each test protein for 30 min, retinal explants were fixed in 4% paraformaldehyde and 15% sucrose. Infection of HSV-LacZ was detected by a standard b-galatosidase staining protocol^20. FLAG-NgR expression was detected by incubating paraformaldehyde-fixed cultures with M2 anti-FLAG antibody (Sigma). Bound antibody was detected by incubation with AP-conjugated […] IgG second antibody and reaction with NBT and BCIP (Vector labs). Growth cone collapse was quantified only in those positively stained for b-galatosidase or immunoreactive for the FLAG epitope.

[3] = molecular target: T2, GST-NgR (extracellular domain of NgR) (Homo sapiens, UniProt Q9BZR6); assay: Co-precipitation with GST-NgR on glutathione-Agarose beads; assay type: binding
T2 construct: a GST fusion protein containing the entire extracellular domain of NgR (GST-NgR); made in house; OM-his made in COS-7 cells
T2 sequence (Q9BZR6 27-447 limits assumed): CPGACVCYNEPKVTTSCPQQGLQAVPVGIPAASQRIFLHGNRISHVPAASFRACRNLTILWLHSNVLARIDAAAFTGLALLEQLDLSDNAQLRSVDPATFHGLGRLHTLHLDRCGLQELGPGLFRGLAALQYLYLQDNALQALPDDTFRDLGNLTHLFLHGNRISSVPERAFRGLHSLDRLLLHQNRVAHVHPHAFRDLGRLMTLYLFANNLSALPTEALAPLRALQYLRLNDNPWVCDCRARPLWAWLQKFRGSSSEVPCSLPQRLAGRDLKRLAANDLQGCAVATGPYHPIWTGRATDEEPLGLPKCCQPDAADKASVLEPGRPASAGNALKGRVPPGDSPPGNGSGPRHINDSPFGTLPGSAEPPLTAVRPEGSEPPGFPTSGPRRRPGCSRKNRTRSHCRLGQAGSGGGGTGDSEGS
Description: To investigate the mechanisms by which OMgp inhibits neurite outgrowth, we used an expression cloning strategy^9,13,16 to identify cell surface OMgp-binding proteins. […] From pools of an adult human brain cDNA expression library, we isolated two cDNAs that encoded OMgp-binding proteins. […] We then established a CHO cell line stably expressing the NgR and determined the binding affinity of expressed NgR for AP-OM as 5 nM, similar to what had been determined for Nogo-66 (7 nM, ref. 9). […] We next performed co-precipitation experiments by incubating GST or a GST fusion protein containing the entire extracellular domain of NgR (GST-NgR) with OM-his alone or in the presence of AP or AP-66 protein. […] We next determined which domain(s) of OMgp was responsible for binding to NgR. Like NgR, OMgp is also a GPI-linked protein containing a leucine-rich repeat (LRR) domain. […] In addition, the C-terminal domain with serine-threonine repeats (AP-S/T) alone was also able to bind, though less strongly, to NgR expressing cells.
In co-precipitation experiments, 2 mg GST or GST-NgR were first immobilized to glutathione-Agarose beads and the beads were further incubated with or without 1 mg OM-his in the presence of 2 mg of AP or AP-66 at 4° C. for 2 hr. After extensive washing, the bound proteins were resolved with SDS-PAGE and detected by Western blotting.

[4] = tested on: cerebellar granule neurons (CGN); assay: Neurite outgrowth assay with cerebellar granule neurons; assay type: cell-based; conditions: P7-9 rat CGN
From the text: To deplete OMgp, myelin was first solublized with 1% octylglucoside and the resultant extract was passed twice through columns with PNA-Agarose (Vector Laboratories) or control Agarose beads as described previously^12. The OMgp-enriched fraction was obtained by eluting the PNA-Agarose column with buffer containing 0.5 M D-galactose. As a significant portion of OMgp co-fractionated with Nogo-A in anion exchange columns^12, we enriched MAG or Nogo-A from myelin by applying the flow-through fractions from the PNA-Agarose columns onto a Q-Sepharose (Sigma) column^15. The column was then eluted stepwise with equal amount of buffers containing 0.15 M (MAG-enriched), 0.45 M (Nogo-A enriched), or 1.0 M NaCl^15. Aliquots of individual fractions were tested for their inhibitory activity in the neurite outgrowth assay as described previously^15,16,21.
Neurite outgrowth assays were performed as described previously^15,21. Briefly, P7-9 rat CGNs were dissected and then plated at a density of 1×10^5 cells per well. The cells were cultured for 24 hr prior to fixation with 4% paraformaldehyde and staining with a neuronal specific anti-b-tubulin antibody (TuJ-1, Covance). Quantification of neurite length and statistical analysis were performed as described previously^22.

[5] = tested on: chick E7 retinal ganglion neurons (RGN) expressing human NgR; assay: Growth cone collapse in E7 retinal ganglion neurons expressing FLAG-NgR (HSV infection); assay type: cell-based; conditions: E7 RGN infected with HSV FLAG-NgR
From the text: To assess whether NgR is capable of mediating OMgp-induced inhibitory activity on neurite outgrowth, we next took a gain-of-function approach to examine whether expression of NgR was able to confer OMgp-responsiveness to otherwise insensitive neurons. It has been shown previously that chick E7 retinal ganglion neurons (RGN) are insensitive to Nogo-66, but that introduction of exogenous NgR in these neurons rendered their growth cones to be responsive to Nogo-66^9. Using the same strategy, we made a recombinant herpes simplex virus (HSV) that drives expression of a FLAG-tagged full-length human NgR (FLAG-NgR) in infected neurons. Upon infection, 80% of the E7 RGNs expressed the FLAG-NgR protein as assessed by immunocytochemistry with an anti-FLAG antibody. […] Furthermore, the growth cones of NgR-expressing axons also become collapsible by OMgp.
Growth Cone Collapse and Neurite Outgrowth Assays. […] Infection of HSV-LacZ was detected by a standard b-galatosidase staining protocol^20. FLAG-NgR expression was detected by incubating paraformaldehyde-fixed cultures with M2 anti-FLAG antibody (Sigma). Bound antibody was detected by incubation with AP-conjugated […] IgG second antibody and reaction with NBT and BCIP (Vector labs). Growth cone collapse was quantified only in those positively stained for b-galatosidase or immunoreactive for the FLAG epitope.

Nogo receptor (NgR) [6] = molecular target: T1, Nogo receptor (NgR); conditions: read-out: binding affinity of NgR for Nogo-66; cited from earlier work

- Kd (Nogo receptor (NgR) [1]): 5 nM
B1: AP-OM: alkaline phosphatase fusion protein containing mouse OMgp, polyhistidine and myc tagged (protein)
chain: ICPLQCTCTERHRHVDCSGRNLTTLPPGLQENIIHLNLSYNHFTDLHNQLTPYTNLRTLDISNNRLESLPAQLPRSLWNMSAANNNIKLLDKSDTAYQWNLKYLDVSKNMLEKVVLIKNTLRSLEVLNLSSNKLWTVPTNMPSKLHIVDLSNNSLTQILPGTLINLTNLTHLYLHNNKFTFIPEQSFDQLLQLQEITLHNNRWSCDHKQNITYLLKWVMETKAHVIGTPCSKQVSSLKEQSMYPTPPGFTSSLFTMSEMQTVDTINSLSMVTQPKVTKTPKQYRGKETTFGVTLSKDTTFSSTDRAVVAYPEDTPTEMTNSHEAAAATLTIHLQDGMSSNASLTSATKSPPSPVTLSIARGMPNNFSEMPRQSTTLNLRREETTANGNTRPPS
modifications: left off: large carriers; small tags and cut ends
notes: alkaline phosphatase fusion protein containing mouse OMgp, polyhistidine and myc tagged
- growth cone collapsing activity ([2]; E13 chick DRG): induce collapse

- competition for binding to NgR ([3]; cell surface binding and co-precipitation assay): competed for binding to NgR
- direct binding to GST-NgR ([3]; co-precipitation, control GST did not bind): bound
B2: OM-his: purified recombinant polyhistidine-tagged mouse OMgp protein (amino acids 23-392) expressed in COS-7 cells (protein)
chain: LCICPLQCTCTERHRHVDCSGRNLTTLPPGLQENIIHLNLSYNHFTDLHNQLTPYTNLRTLDISNNRLESLPAQLPRSLWNMSAANNNIKLLDKSDTAYQWNLKYLDVSKNMLEKVVLIKNTLRSLEVLNLSSNKLWTVPTNMPSKLHIVDLSNNSLTQILPGTLINLTNLTHLYLHNNKFTFIPEQSFDQLLQLQEITLHNNRWSCDHKQNITYLLKWVMETKAHVIGTPCSKQVSSLKEQSMYPTPPGFTSSLFTMSEMQTVDTINSLSMVTQPKVTKTPKQYRGKETTFGVTLSKDTTFSSTDRAVVAYPEDTPTEMTNSHEAAAATLTIHLQDGMSSNASLTSATKSPPSPVTLSIARGMPNNFSE
modifications: left off: small tags and cut ends
notes: purified recombinant polyhistidine-tagged mouse OMgp protein (amino acids 23-392) expressed in COS-7 cells
- inhibition of neurite outgrowth [4]: inhibited neurite outgrowth
- growth cone collapsing activity ([2]; E13 chick DRG): induced the collapse of growth cones
- EC50 ([2]; E13 chick DRG growth cones, read-out: effective concentration for half-maximal response (EC50), growth cone collapse): ~1.5 nM and 1.5 nM

B3: Nogo-66: 66 amino acid extracellular domain of Nogo-A (protein)
chain: RIYKGVIQAIQKSDEGHPFRAYLESEVAISEELVQKYSNSALGHVNCTIKELRRLFLVDDLVDSLK
modifications: left off: large carriers
notes: 66 amino acid extracellular domain of Nogo-A
- growth cone collapse response in NgR-expressing neurons [5]: conferred a growth cone collapse response
- Kd (Nogo receptor (NgR) [6]): 7 nM
- growth cone collapsing activity after PI-PLC treatment of the neurons ([2]; PI-PLC pre-incubation, E13 chick DRG): insensitive
